± gives the standard deviation of the averaged measurements.
Assay: total protein half-life in vivo (active degradation + dilution); higher = more stable protein
[1] = E. coli NCM3722 delta-clpP delta-lon delta-hslV, growth: N-lim chemostat, doubling time 6 h
[2] = E. coli NCM3722 delta-clpP, growth: N-lim chemostat, doubling time 6 h
[3] = wild type E. coli NCM3722, growth: C-lim chemostat, doubling time 3 h
[4] = wild type E. coli NCM3722, growth: C-lim chemostat, doubling time 6 h
[5] = wild type E. coli NCM3722, growth: C-lim chemostat, doubling time 12 h
[6] = E. coli NCM3722 delta-hslV, growth: N-lim chemostat, doubling time 6 h
[7] = E. coli NCM3722 delta-lon, growth: N-lim chemostat, doubling time 6 h
[8] = E. coli NCM3722 delta-smpB, growth: N-lim chemostat, doubling time 6 h
[9] = wild type E. coli NCM3722, growth: N-lim chemostat, doubling time 6 h
[10] = wild type E. coli NCM3722, growth: N-lim chemostat, doubling time 12 h
[11] = wild type E. coli NCM3722, growth: P-lim chemostat, doubling time 6 h
[12] = wild type E. coli NCM3722, growth: P-lim chemostat, doubling time 12 h

| Sequence | total protein half-life in vivo [1] [h] | total protein half-life in vivo [2] [h] | total protein half-life in vivo [3] [h] | total protein half-life in vivo [4] [h] | total protein half-life in vivo [5] [h] | total protein half-life in vivo [6] [h] | total protein half-life in vivo [7] [h] | total protein half-life in vivo [8] [h] | total protein half-life in vivo [9] [h] | total protein half-life in vivo [10] [h] | total protein half-life in vivo [11] [h] | total protein half-life in vivo [12] [h] |
| --- | --- | --- | --- | --- | --- | --- | --- | --- | --- | --- | --- | --- |
| METVAYADFARLEMRVGKIVEVKRHENADKLYIVQVDVGQKTLQTVTSLVPYYSEEELMGKTVVVLCNLQKAKMRGETSECMLLCAETDDGSESVLLTPERMMPAGVRVV | 5.14 ± 0.11 | 5.33 | 2.97 ± 0.48 | 4.74 ± 0.58 | 8.53 ± 0.87 |  |  |  |  |  |  |  |
| METYAVFGNPIAHSKSPFIHQQFAQQLNIEHPYGRVLAPINDFINTLNAFFSAGGKGANVTVPFKEEAFARADELTERAALAGAVNTLMRLEDGRLLGDNTDGVGLLSDLERLSFIRPGLRILLIGAGGASRGVLLPLLSLDCAVTITNRTVSRAEELAKLFAHTGSIQALSMDELEGHEFDLIINATSSGISGDIPAIPSSLIHPGIYCYDMFYQKGKTPFLAWCEQRGSKRNADGLGMLVAQAAHAFLLWHGVLPDVEPVIKQLQEELSA | 4 ± 0.39 | 4.39 ± 0.89 | 2.4 ± 0.59 | 5.428 ± 0.014 | 8.94 ± 2.3 | 4.03 ± 0.27 | 6.18 ± 2.5 | 3.9 ± 0.14 | 4.16 ± 0.36 | 6.95 ± 0.015 | 6.01 ± 0.18 | 11.7 ± 1.5 |
| MEWIADPSIWAGLITLIVIELVLGIDNLVFIAILAEKLPPKQRDRARVTGLLLAMLMRLLLLASISWLVTLTQPLFSFRSFTFSARDLIMLFGGFFLLFKATMELNERLEGKDSNNPTQRKGAKFWGVVTQIVVLDAIFSLDSVITAVGMVDHLLVMMAAVVIAISLMLMASKPLTQFVNSHPTIVILCLSFLLMIGFSLVAEGFGFVIPKGYLYAAIGFSVMIEALNQLAIFNRRRFLSANQTLRQRTTEAVMRLLSGQKEDAELDAETASMLVDHGNQQIFNPQERRMIERVLNLNQRTVSSIMTSRHDIEHIDLNAPEEEIRQLLERNQHTRLVVTDGDDAEDLLGVVHVIDLLQQSLRGEPLNLRVLIRQPLVFPETLPLLPALEQFRNARTHFAFVVDEFGSVEGIVTLSDVTETIAGNLPNEVEEIDARHDIQKNADGSWTANGHMPLEDLVQYVPLPLDEKREYHTIAGLLMEYLQRIPKPGEEVQVGDYLLKTLQVESHRVQKVQIIPLRKDGEMEYEV | 6.68 ± 1.2 | 6.24 ± 0.2 |  |  | 14.9 ± 0.52 | 6.92 ± 0.87 | 6.34 ± 0.46 | 6.27 ± 0.67 | 6.24 ± 0.23 | 12.28 ± 0.022 | 6.598 ± 0.06 | 11.1 ± 2 |
| MEYQHWLREAISQLQASESPRRDAEILLEHVTGRGRTFILAFGETQLTDEQCQQLDALLTRRRDGEPIAHLTGVREFWSLPLFVSPATLIPRPDTECLVEQALARLPEQPCRILDLGTGTGAIALALASERPDCEIIAVDRMPDAVSLAQRNAQHLAIKNIHILQSDWFSALAGQQFAMIVSNPPYIDEQDPHLQQGDVRFEPLTALVAADSGMADIVHIIEQSRNALVSGGFLLLEHGWQQGEAVRQAFILAGYHDVETCRDYGDNERVTLGRYYQ [P0ACC1] | 4.72 ± 1.1 | 3.88 |  | 5.5 ± 0.85 | 9.85 | 3.35 | 4.15 ± 0.14 | 3.23 |  | 5.79 ± 0.26 | 5.35 ± 0.41 | 9.69 ± 0.87 |
| MEYQLTLNWPDFLERHWQKRPVVLKRGFNNFIDPISPDELAGLAMESEVDSRLVSHQDGKWQVSHGPFESYDHLGETNWSLLVQAVNHWHEPTAALMRPFRELPDWRIDDLMISFSVPGGGVGPHLDQYDVFIIQGTGRRRWRVGEKLQMKQHCPHPDLLQVDPFEAIIDEELEPGDILYIPPGFPHEGYALENAMNYSVGFRAPNTRELISGFADYVLQRELGGNYYSDPDVPPRAHPADVLPQEMDKLREMMLELINQPEHFKQWFGEFISQSRHELDIAPPEPPYQPDEIYDALKQGEVLVRLGGLRVLRIGDDVYANGEKIDSPHRPALDALASNIALTAENFGDALEDPSFLAMLAALVNSGYWFFEG | 5 ± 0.51 | 5.08 ± 0.63 | 3.12 ± 0.54 | 5.25 ± 0.26 | 10.1 ± 1 | 4.45 ± 0.092 | 4.25 ± 0.14 | 4.63 ± 0.28 | 4.6 ± 0.32 | 8.11 ± 0.15 | 6.71 ± 1.1 | 13 ± 0.99 |
| MEYRSLTLDDFLSRFQLLRPQINRETLNHRQAAVLIPIVRRPQPGLLLTQRSIHLRKHAGQVAFPGGAVDDTDASAIAAALREAEEEVAIPPSAVEVIGVLPPVDSVTGYQVTPVVGIIPPDLPYRASEDEVSAVFEMPLAQALHLGRYHPLDIYRRGDSHRVWLSWYEQYFVWGMTAGIIRELALQIGVKP | 5.44 ± 0.41 | 2.96 ± 0.13 | 2.36 ± 0.8 | 5.03 ± 0.89 | 7.74 ± 0.73 | 3.99 ± 0.25 | 4.38 ± 0.51 | 3.01 ± 0.22 | 4 ± 0.21 | 6.98 ± 0.38 | 4.45 ± 0.2 | 8.18 ± 0.56 |
| MFAVSSRRVLPGFTLSLGTSLLFVCLILLLPLSALVMQLAQMSWAQYWEVITNPQVVAAYKVTLLSAFVASIFNGVFGLLMAWILTRYRFPGRTLLDALMDLPFALPTAVAGLTLASLFSVNGFYGEWLAKFDIKVTYTWLGIAVAMAFTSIPFVVRTVQPVLEELGPEYEEAAETLGATRWQSFCKVVLPELSPALVAGVALSFTRSLGEFGAVIFIAGNIAWKTEVTSLMIFVRLQEFDYPAASAIASVILAASLLLLFSINTLQSRFGRRVVGH | 7.77 | 6.57 | 3.13 ± 0.25 | 4.2551 ± 0.0035 | 7.05 | 4.7 | 4.58 | 2.4 | 4.83 ± 0.59 |  |  | 10.2 ± 1.2 |

Reference: the supplement of paper PMC11246515
